Assay results: the DeepSol protein solubility set

Test: soluble on expression in E. coli; label from the status in PepcDB or PDB records

Q: Which “soluble on expression in E. coli” value does the source give for “MPKVDVYDINGKVVGEINLRDDIFGIEVNKHAIHQVIVNQLANRRQGTQSTKTKSEVRGGGRKPWRQKGTGRARHGSIRSAQWVKGGIALGPKPRSYKYAVPKKLRRLALKSALSSKVNENELLVLDSLNFDEIKTKQMANVLKNLKVNDTTAVLVLADKNRNVELSARNIPGLKTLFVNTMNVYDIIRHDKFIITKDAVAKVEEVYA” here?
A: not soluble

Q: Which “soluble on expression in E. coli” value does the source give for “MGSDKIHHHHHHMAKRKVPPEFVVERDDYKCIRCLACVRVCSYGANFYDENANRVYTENTKCVGCHFCEAICPTEAITVRKNDFDIRPLAHWTPEHLIGIMKQAETGGVLLTSMGNDRPYFSYFDRIVLNASQVTNPSIDPLREPMEIRTYIGRKEEKLEIEEDEDGTVKLKTEIAPQLKLEVPVMFTAMSYGSISLNAILSLARAARTVGTFFNTGEGGLPKELREFKDNMIVQVASGRFGVSADYLNAGSAVEIKIGQGAKPGIGGHLPGEKVTEPISETRMIPVGTDALSPAPHHDIYSIEDLRQLIYAIKEATRYEKPVGVKIAAVHNVAPIAAGAVRAGADYIVIDGIRGGTGAAPKITRDHVGIPIEFAVAVVDQRLREEGIRHMASIVVAGGIRNSADVIKAIALGADAVYIGTAALISLGCHLCQTCYLGKCNWGIATQDPKLTKRLNPEIGARRAANLLRAWAHEIKEILGGMGINAIESLRGNREVLRGVGLHEYELKLLGIKPAGEAW” here?
A: not soluble

Q: Which “soluble on expression in E. coli” value does the source give for “MGSDKIHHHHHHMMATIKDIAKEVGCSISTVSRVLNNDPTLSVGDETRSRIFEVAEEIGYRKKTLKTLVKNIAFLYWLTDNEELEDVYFQTMRVEIEKKARENNIELTTYKLEGGIEKIPLDIDGFIAVGSFMNRELEYLRELTPHGVFIDSTPDPAHYDSVRPDLAQITRQAVEVLVEQGHEKIGFIGGTYHNLDTDAEEMDGRERAFRQTMEERDLLREDFIFCRRGFSVDNGHYLMNQAVEQLGEELPTAFYVAADPIAVGCLQVLNEQQIEIPKRVSLISVNDTSISKYVSPPLTTFHIDLEEICQNAIQLLLERVLKKRNIVKTVYIGAELITRKSTL” here?
A: not soluble

Q: For “MSPFMEKTLLLLGVLCCIQVTTALMCYDCNSEFDPRCGDPFEPYSIGEVNCSKQEPLEHLKDKYKPTLCRKTVQKIYGKTRIVRGCGYIPDENTDNKCVRRSGTHDVAAIYCSCTKDLCNGANSPAGQWMMLPLIVAAGLALLLNSRHTIRFQSS”, which “soluble on expression in E. coli” value is on record?
A: not soluble

Q: For “MSNYWLNIYKPRGISSAQLVSIVKKILGKTKIGHAGTLDVEAEGILPFAVGEATKLIHLLVDARKTYIFTVKFGMQTNSGDCAGKVIATKDCIPSQEEAYAVCSKFIGNVTQIPPAFSALKVNGVRAYKLAREGKKVELKPRNITIYDLKCLNFDEKNATATYYTECSKGTYIRTLAEDLALSLQSLGFVIELRRTQVGIFKEENAIRIKSPDEITKNALEENSIKIEAILDDILVLDATDSQAQQIKYGQKCLFNYEKDFRHLAKFAYREEFKGNTERNTTAYTLVREDASTGLTYKLPLEVEFGKMSVDLLWVRYKGTLLAIGSLNKSCFNSLRVFNLTQDFF”, which “soluble on expression in E. coli” value is on record?
A: not soluble

Q: For “SDMRQHEEYIADMALDPAKKLLLTASGDGCLGVFNIKRRRFELLSEPQSGDLTSVALMKYGKKVACGSSEGTIYLFNWNGFGATSDRFALRAESIDCIVPVTENLLCTSSTDGIIRAVNILPNRVVGTVGQHAGEPVEALALSHCGHFLASSGHDQRLKFWDMTQLRTVVVDDYRRRKKKGGPLRALSSKAWSTDDFFAGLREDEEDAKAPEEVVRESDDDDDDSD”, which “soluble on expression in E. coli” value is on record?
A: soluble

Q: Which “soluble on expression in E. coli” value does the source give for “YTIEELVKQADQQFNGNIAELMIATEVEMSGRNREDIIKIMSRNLQVMKAAVTEGLTSTKSISGLTGGDAVKMDNYIKKGNSLSDTTILNAVRNAIAVNELNAKMGLVCATPTAGSAGCLPAVLATAIEKLDLSEKEQLEFLFTAGAFGLVIGNNASISGAEGGCQAE” here?
A: not soluble

Q: Which “soluble on expression in E. coli” value does the source give for “MNLGDLTNFVEKPLAAVSNIVNTPNSAGRYRPFYLRNLLDAVQGRNLNDAVKGKVVLITGGSSGIGAAAAKKIAEAGGTVVLVARTLENLENVANDIRAIRGNGGTAHVYPCDLSDMDAIAVMADQVLGDLGGVDILINNAGRSIRRSLELSYDRIHDYQRTMQLNYLGAVQLILKFIPGMRERHFGHIVNVSSVGVQTRAPRFGAYIASKAALDSLCDALQAETVHDNVRFTTVHMALVRTPMISPTTIYDKFPTLTPDQAAGVITDAIVHRPRRASSPFGQFAAVADAVNPAVMDRVRNRAFNMFGDSSAAKGSESQTDTSELDKRSETFVRATRGIHW” here?
A: soluble

Q: With “MNALSGLQVITRRPDKRSASGVTKKCRKSLKTAPDTKTVFKGSFASHYVDKSSQVNPGTHITVRGSIHGEVSIKKMLKGSRCRTAL” as the sequence, how does the “soluble on expression in E. coli” value read?
A: not soluble
